B1: 4.1D3 (antibody, V domains shown)
VH: QVQLQQSGPGLVKPSQTLSLTCAISGDSVSSNSAAWNWIRQSPSRGLEWLGKTYYRFKWYSDYAVSVKGRITINPDTSKNQFSLQLNSVTPEDTAVFYCTRESTTYDLLAGPFDYWGQGTLVTVSS
VL: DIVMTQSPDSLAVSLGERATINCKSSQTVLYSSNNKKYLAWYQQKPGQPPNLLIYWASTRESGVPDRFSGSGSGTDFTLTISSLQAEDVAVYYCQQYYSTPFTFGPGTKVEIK
notes: OMT rat-derived human antibody; also called 4.1D3.Q1
B2: 4.1D3.Q1E (antibody, V domains shown)
VH: B1 VH with Q1E
VL: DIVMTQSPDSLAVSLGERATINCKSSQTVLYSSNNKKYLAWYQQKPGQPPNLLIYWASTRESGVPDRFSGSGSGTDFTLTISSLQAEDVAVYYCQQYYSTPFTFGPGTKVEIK
B3: 7.4A3.C96S.Q1E (antibody, V domains shown)
VH: EVQLVQSGSDLKKPGASVRVSCKASGYTFTSYPMNWVRQAPGHGLEWMGWINTNTGNPTYVQGFTGRFVFSLDTSVNTAYLQISSLKAEDTAVYFCARTGGHTYDSYAFDVWGQGTMVTVSS
VL: DIQLTQSPTFLSASVGDRVTITCRASQVISSSLAWYQQNPGKAPKLLIYAASTLQSGVPSRFSGSGSGTEFTLTISSLQPEDFVTYYCQHLHGYPSNFGQGTKVEIK
notes: also called 7.4A3.Q1E.C96S
B4: 10A7 (antibody, V domains shown)
VH: EVQLVESGGGLTQPGKSLKLSCEASGFTFSSFTMHWVRQSPGKGLEWVAFIRSGSGIVFYADAVRGRFTISRDNAKNLLFLQMNDLKSEDTAMYYCARRPLGHNTFDSWGQGTLVTVSS
VL: DIVMTQSPSSLAVSPGEKVTMTCKSSQSLYYSGVKENLLAWYQQKPGQSPKLLIYYASIRFTGVPDRFTGSGSGTDYTLTITSVQAEDMGQYFCQQGINNPLTFGDGTKLEIKR

Substitutions are numbered along the chain they refer to. In names and notes the source's numbering stands.

T2 sequence (A0A7N9I9V4 entry or part of it): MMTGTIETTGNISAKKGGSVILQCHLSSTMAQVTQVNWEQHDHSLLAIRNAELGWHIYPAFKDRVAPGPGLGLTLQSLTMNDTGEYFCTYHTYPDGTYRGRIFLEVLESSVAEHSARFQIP

One assay deals with T1, human TIGIT protein (human, UniProt Q495A1 22-141, limits assumed).
T1 construct: Recombinant protein (Genentech) used in ELISA screening and as SPR analyte; also called TIGIT antigen
T1 sequence: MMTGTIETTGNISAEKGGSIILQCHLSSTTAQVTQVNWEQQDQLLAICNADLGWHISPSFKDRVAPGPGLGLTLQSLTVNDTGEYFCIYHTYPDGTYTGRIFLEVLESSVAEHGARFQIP
Put plainly: SPR, captured mAb. The source says: (§1) To prevent unwanted pyroglutamate formation for clones 4.1A4, 4.1 D3, and 7.4A3 (also referred to as 1A4, 1 D3, and 4A3, respectively) and to resolve the issue of unpaired cysteine residues for clones 4.1A4 and 7.4A3, the following optimized anti-TIGIT antibody variants were generated: 4.1A4.C96S.Q1E, 4.1A4.C96Y.Q1E, 4.1 D3.Q1E, 7.4A3.C96S.Q1E, and 7.4A3.C96Y.Q1E (also referred to as 1A4.C96S.Q1E, 1A4.C96Y.Q1E, 1 D3.Q1E, 4A3.C96S.Q1E, and 4A3.C96Y.Q1E, respectively). As described below in Table 2, the affinities of these five optimized variants for human and cynomolgus monkey (cyno) TIGIT were then determined by Surface Plasmon Resonance (SRP) (BIACORE™ analysis) and compared to that of their respective parental clones.
(§2) Briefly, a series S CM5 biosensor chip was activated with N-ethyl-N′-(3-dimethylaminopropyl)-carbodiimide hydrochloride (EDC) and N-hydroxysuccinimide (NHS) reagents according to the supplier's (GE Healthcare Biosciences, Piscataway, N.J.) instructions, and a human antibody capture kit was applied to couple goat anti-human Fc IgGs in order to achieve approximately 10,000 response units (RU) on each flow cell, followed by blocking un-reacted groups with 1M ethanolamine.
(§3) (flow rate: 30 μl/min) with no regeneration between injections. The sensorgrams were recorded and evaluated by BIAcore™ T200 Evaluation Software (version 2.0) after subtraction of reference cell signal. Association rates (kₒₙ) and dissociation rates (koff) were calculated using a simple one-to-one Langmuir binding model. The equilibrium dissociation constant (KD) was calculated as the ratio koff/kₒₙ.
Broadly, the Kd is the concentration at which binding is half-saturated. For orientation: koff means the first-order rate constant of dissociation. One may read the kon as a measure of how fast the partners come together. For B1, the affinity, expressed as Kd, was 0.43 nM; the dissociation rate constant (koff) was determined as 0.00164 s⁻¹; the kon is 3.84e+06 M⁻¹ s⁻¹.

In turn, B2 returned a Kd of 0.56 nM, an off-rate constant (koff) of 0.00097 s⁻¹ and a kon of 1.72e+06 M⁻¹ s⁻¹.

The molecule B3 returned a Kd of 2.97 nM, an off-rate (koff) of 0.000856 s⁻¹ and an on-rate (kon) of 288000 M⁻¹ s⁻¹.

A further assay has as its target T2, cynomolgus monkey (cyno) TIGIT protein (cynomolgus monkey, UniProt A0A7N9I9V4 89-209). Put plainly: SPR, captured mAb.
Text: as §1, §2, §3
B1 yielded an equilibrium dissociation constant (Kd) of 3.33 nM, an off-rate constant (koff) of 0.00207 s⁻¹ and a kon of 621000 M⁻¹ s⁻¹.

B2 returned an equilibrium dissociation constant (Kd) of 3.22 nM, an off-rate constant (koff) of 0.00154 s⁻¹ and a kon of 478000 M⁻¹ s⁻¹.

Take B3: the affinity, expressed as Kd, was 2.01 nM; the off-rate constant (koff) was 0.000556 s⁻¹; the kon is 276000 M⁻¹ s⁻¹.

Another assay addresses T1, human TIGIT protein. Put plainly: SPR, monovalent affinity. In general terms: Surface plasmon resonance follows binding to a sensor surface in real time, without labels.
Turning to B1, binding was characterised by a dissociation constant (Kd) of 0.61 nM.

As to B2, the affinity, expressed as Kd, was 0.57 nM.

For the molecule B3, the affinity, expressed as Kd, was 2.97 nM.

A further assay addresses T2, cynomolgus monkey (cyno) TIGIT protein. Put plainly: SPR, monovalent affinity.
In the case of B1, the Kd worked out at 3.4 nM.

B2 displayed a Kd of 3.2 nM.

Regarding B3, the Kd came to 2.02 nM.

For another assay, the target named is T3, hTIGIT mutant Q56A (human, UniProt Q495A1).
T3 sequence (TIGIT, looked up): T1 sequence with Q35A
Put plainly: SPR (BIACORE), N=2.
In the case of B4, the equilibrium dissociation constant (Kd) was 29.5 nM.

Molecule B1 had a Kd of 2.7 nM.

B3: the affinity, expressed as Kd, was 23.7 nM.

Another assay concerns the target T4, hTIGIT mutant L65A (human, UniProt Q495A1).
T4 sequence (TIGIT, looked up): T1 sequence with L44A
Nature of the assay: SPR (BIACORE), N=2.
Molecule B4 returned a Kd of 10.6 nM.

In the case of B1, binding was characterised by a dissociation constant (Kd) of 8.8 nM.

In the case of B3, the equilibrium dissociation constant (Kd) came to 3.9 nM.

The next assay addresses T5, hTIGIT mutant H76A (human, UniProt Q495A1).
T5 sequence (TIGIT, looked up): T1 sequence with H55A
Nature of the assay: SPR (BIACORE) KD normalized to WT, N=2.
B4: the “Binding affinity drop vs. WT” value is over 11 fold.

In the case of B1, the “Binding affinity drop vs. WT” value was 1.4 fold.

Regarding B3, the “Binding affinity drop vs. WT” value was 2.3 fold.

For another assay, the target named is T6, hTIGIT mutant H111A (human, UniProt Q495A1).
T6 sequence (TIGIT, looked up): T1 sequence with H90A
Nature of the assay: SPR (BIACORE) KD normalized to WT, N=2.
Take B4: the “Binding affinity drop vs. WT” value was 0.7 fold.

For the molecule B1, the “Binding affinity drop vs. WT” value was found to be 3.8 fold.

Consider B3, for which the “Binding affinity drop vs. WT” value was found to be 84 fold.

In another assay the target is T7, hTIGIT mutant T117A (human, UniProt Q495A1).
T7 sequence (TIGIT, looked up): T1 sequence with T96A
Put plainly: SPR (BIACORE) KD normalized to WT, N=2.
On to B4, for which the “Binding affinity drop vs. WT” value worked out at 0.8 fold.

On to B1, for which the “Binding affinity drop vs. WT” value stood at 1.4 fold.

In the case of B3, the “Binding affinity drop vs. WT” value came to 1.8 fold.

For a further assay, the target named is T3, hTIGIT mutant Q56A. Nature of the assay: SPR (BIACORE) KD normalized to WT, N=2.
Consider B4, for which the “Binding affinity drop vs. WT” value was 0.7 fold.

On to B1, for which the “Binding affinity drop vs. WT” value was found to be 5.4 fold.

Take B3: the “Binding affinity drop vs. WT” value is 13.2 fold.

The target in another assay is T8, hTIGIT mutant E60A (human, UniProt Q495A1).
T8 sequence (TIGIT, looked up): T1 sequence with E39A
Put plainly: SPR (BIACORE) KD normalized to WT, N=2.
On to B4, for which the “Binding affinity drop vs. WT” value came out at 0.9 fold.

On to B1, for which the “Binding affinity drop vs. WT” value was found to be 12.2 fold.

In the case of B3, the “Binding affinity drop vs. WT” value turned out to be 2.7 fold.

In the next assay the target is T4, hTIGIT mutant L65A. Put plainly: SPR (BIACORE) KD normalized to WT, N=2.
As to B4, the “Binding affinity drop vs. WT” value came out at 0.2 fold.

B1: the “Binding affinity drop vs. WT” value worked out at 17.6 fold.

Turning to B3, the “Binding affinity drop vs. WT” value was determined as 2.2 fold.

A further assay deals with T9, hTIGIT mutant I68A (human, UniProt Q495A1).
T9 sequence (TIGIT, looked up): T1 sequence with I47A
Put plainly: SPR (BIACORE) KD normalized to WT, N=2.
Turning to B4, the “Binding affinity drop vs. WT” value was 0.4 fold.

Turning to B1, the “Binding affinity drop vs. WT” value amounted to 21 fold.

Regarding B3, the “Binding affinity drop vs. WT” value stood at 2.7 fold.

In another assay the target is T10, hTIGIT mutant N70A (human, UniProt Q495A1).
T10 sequence (TIGIT, looked up): T1 sequence with N49A
Nature of the assay: SPR (BIACORE) KD normalized to WT, N=2.
Turning to B4, the “Binding affinity drop vs. WT” value was found to be 0.5 fold.

Take B1: the “Binding affinity drop vs. WT” value came to 3.4 fold.

With B3, the “Binding affinity drop vs. WT” value is 5.9 fold.

These data come from patent US20220064286A1 (Genentech, published 2022).
